For assay [1], the target named is synthetic Aβ42CC (amyloid-β 1-42 peptide with A21C/A30C mutations) (human). Description: SEC-MALS; oligomeric preparations (synthetic Aβ42CC 8 h or 24 h at RT at pH 7.2, or aggregated at RT in PBS at 0.6 mg/mL; recombinant Aβ42CC after concentration or incubation); TSK-GEL G4000SWxl, 20 mM sodium phosphate, 150 mM NaCl, pH 7.4, autosampler 5 °C. (In general: In gel filtration, larger molecules generally elute earlier.)

Assay [2] has the same target. Description: SEC-MALS; synthetic Aβ42CC 0.6 mg/mL, 50 min at RT after neutralisation to pH 7.2, then frozen; TSK-GEL G4000SWxl, 20 mM sodium phosphate, 150 mM NaCl, pH 7.4, autosampler 5 °C.

Turning to “synthetic Aβ42CC (amyloid-β 1-42 peptide with A21C/A30C mutations)”, the oligomer content in assay [1] was more than 94%. The substance also registered a percent of the peptide present as 104 kDa oligomers in assay [2] of 20%.

The record behind these values is article PMC9798723.
